One data set has as its target T1, ScLsm3 (Saccharomyces cerevisiae, UniProt P57743 1-89).
T1 sequence: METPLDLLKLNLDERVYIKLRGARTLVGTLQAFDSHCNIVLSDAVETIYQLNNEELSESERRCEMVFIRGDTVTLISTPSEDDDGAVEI
Nature of the data set: SPR; 1 uM protein; FA: 20 mM Hepes pH 7.5, 100 mM NaCl, 25 C, 0.1 uM RNA; SPR (Biacore 3000): 20 mM Hepes pH 7.5, 100 mM NaCl, 25 C, 1 uM protein. The conditions noted are these: protein: recombinant; tags: His6 removed by PreScission; chain copies: 8; label: 5' biotin; single strand. (SPR reads the build-up and loss of mass on a sensor chip optically.)

Another data set deals with SpLsm5;SpLsm6;SpLsm7 (Schizosaccharomyces …, UniProt O42978;Q9UUI1;O74499 1-80;1-75;1-113, ||). Nature of the data set: fluorescence anisotropy; FA: 20 mM Hepes pH 7.5, 100 mM NaCl, 25 C, 0.1 uM RNA; SPR (Biacore 3000): 20 mM Hepes pH 7.5, 100 mM NaCl, 25 C, 1 uM protein. The conditions noted are these: protein: recombinant;recombinant;recombinant; tags: N-terminal His6;none;; chain copies: 2;2;2; label: 5' 6-FAM; single strand.

Data set [1] has as its target SpLsm2 (of SpLsm2/3);SpLsm3 (of SpLsm2/3) (Schizosaccharomyces …, UniProt O94408;Q9Y7M4 1-96;1-93, |). The description is as above. The conditions noted are these: protein: recombinant;recombinant; tags: N-terminal His6;none; label: 5' 6-FAM; single strand.

Usually Kd stands for the equilibrium constant for the complex coming apart.

Chain of SpLsm5;SpLsm6;SpLsm7 (O42978 whole entry, chain 1 of 3): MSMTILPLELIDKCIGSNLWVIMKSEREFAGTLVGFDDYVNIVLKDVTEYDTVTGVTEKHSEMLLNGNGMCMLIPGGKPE
Chain of SpLsm5;SpLsm6;SpLsm7 (Q9UUI1 whole entry, chain 2 of 3): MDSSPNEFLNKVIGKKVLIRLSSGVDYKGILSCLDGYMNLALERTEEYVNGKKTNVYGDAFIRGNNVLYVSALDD
Chain of SpLsm5;SpLsm6;SpLsm7 (O74499 whole entry, chain 3 of 3): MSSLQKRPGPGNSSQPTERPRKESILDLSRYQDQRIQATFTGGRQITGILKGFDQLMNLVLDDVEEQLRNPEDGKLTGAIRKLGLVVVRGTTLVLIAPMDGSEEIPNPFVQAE
Chain of SpLsm2 (of SpLsm2/3);SpLsm3 (of SpLsm2/3) (O94408 whole entry, chain 1 of 2): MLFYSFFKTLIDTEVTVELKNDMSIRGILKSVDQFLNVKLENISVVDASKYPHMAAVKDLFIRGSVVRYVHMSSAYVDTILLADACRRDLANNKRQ
Chain of SpLsm2 (of SpLsm2/3);SpLsm3 (of SpLsm2/3) (Q9Y7M4 whole entry, chain 2 of 2): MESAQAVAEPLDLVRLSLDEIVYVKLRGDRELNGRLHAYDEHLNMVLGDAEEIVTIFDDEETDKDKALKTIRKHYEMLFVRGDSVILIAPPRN

B1: U15 (biotin) (ssRNA)
RNA: UUUUUUUUUUUUUUU
With B1, in the data set with ScLsm3, the binding result is “no binding”.

B2: U15 (FAM) (ssRNA)
RNA: UUUUUUUUUUUUUUU
In the case of B2, the figures for the dissociation constant (Kd) (with SpLsm5;SpLsm6;SpLsm7; in data set [1]) were 52.5 ± 10 µM and 4 ± 0.5 µM, respectively.

Source of the values: article PMC3355152, “Crystal Structures of Lsm3, Lsm4 and Lsm5/6/7 from Schizosaccharomyces pombe”.
